In publication PMC3994186 (Oncogene, 2013):

These binders were tested against T1, His-tagged RAD51C (human, UniProt O43502 1-376) (assay: pull-down).
T1 sequence: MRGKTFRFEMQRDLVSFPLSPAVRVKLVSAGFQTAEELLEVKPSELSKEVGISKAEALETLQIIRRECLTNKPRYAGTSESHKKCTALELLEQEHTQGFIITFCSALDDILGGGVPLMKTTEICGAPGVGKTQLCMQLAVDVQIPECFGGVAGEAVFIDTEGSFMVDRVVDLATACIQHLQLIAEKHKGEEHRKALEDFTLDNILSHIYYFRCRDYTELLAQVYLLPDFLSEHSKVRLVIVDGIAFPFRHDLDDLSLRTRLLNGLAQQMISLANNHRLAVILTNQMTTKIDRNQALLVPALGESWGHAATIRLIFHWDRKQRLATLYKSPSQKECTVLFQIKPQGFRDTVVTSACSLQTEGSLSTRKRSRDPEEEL

| Binder | binding result |
| --- | --- |
| MBP fused to the WD40 domain of PALB2 (amino acids 859-1186), wild type (domain or fragment) SELKNPSGSCSVDVSAMFWERAGCKEPCIITACEDVVSLWKALDAWQWEKLYTWHFAEVPVLQIVPVPDVYNLVCVALGNLEIREIRALFCSSDDESEKQVLLKSGNIKAVLGLTKRRLVSSSGTLSDQQVEVMTFAEDGGGKENQFLMPPEETILTFAEVQGMQEALLGTTIMNNIVIWNLKTGQLLKKMHIDDSYQASVCHKAYSEMGLLFIVLSHPCAKESESLRSPVFQLIVINPKTTLSVGVMLYCLPPGQAGRFLEGDVKDHCAAAILTSGTIAIWDLLLGQCTALLPPVSDQHWSFVKWSGTDSHLLAGQKDGNIFVYHYS | binds |
| MBP-PALB2 WD40 domain T1030I (domain or fragment) SELKNPSGSCSVDVSAMFWERAGCKEPCIITACEDVVSLWKALDAWQWEKLYTWHFAEVPVLQIVPVPDVYNLVCVALGNLEIREIRALFCSSDDESEKQVLLKSGNIKAVLGLTKRRLVSSSGTLSDQQVEVMTFAEDGGGKENQFLMPPEETILTFAEVQGMQEALLGTIIMNNIVIWNLKTGQLLKKMHIDDSYQASVCHKAYSEMGLLFIVLSHPCAKESESLRSPVFQLIVINPKTTLSVGVMLYCLPPGQAGRFLEGDVKDHCAAAILTSGTIAIWDLLLGQCTALLPPVSDQHWSFVKWSGTDSHLLAGQKDGNIFVYHYS | binds |
| MBP-PALB2 WD40 domain L939W (domain or fragment) SELKNPSGSCSVDVSAMFWERAGCKEPCIITACEDVVSLWKALDAWQWEKLYTWHFAEVPVLQIVPVPDVYNLVCVALGNWEIREIRALFCSSDDESEKQVLLKSGNIKAVLGLTKRRLVSSSGTLSDQQVEVMTFAEDGGGKENQFLMPPEETILTFAEVQGMQEALLGTTIMNNIVIWNLKTGQLLKKMHIDDSYQASVCHKAYSEMGLLFIVLSHPCAKESESLRSPVFQLIVINPKTTLSVGVMLYCLPPGQAGRFLEGDVKDHCAAAILTSGTIAIWDLLLGQCTALLPPVSDQHWSFVKWSGTDSHLLAGQKDGNIFVYHYS | binds |
